System: PPIs identified as affected by the SH3 domain deletions
Assay: Liquid DHFR-PCA low-throughput validation of PPIs affected by SH3 deletion (Fig. S1D-E)
Assay type: cell-based, Saccharomyces cerevisiae
Conditions: label = prey, liquid DHFR-PCA, prey _1 = lost, _2 = gained in screen
Protocol: Liquid DHFR-PCA low-throughput experiments were performed to validate the PPIs identified as affected by the SH3 domain deletions in the high-throughput solid DHFR-PCA screen (256 PPIs weaker or lost and 116 PPIs stronger or gained following domain deletions). Mating and the diploid selection were performed as described for the large-scale experiment, with the exception that the plates were in 384 formats. Following the second diploid selection, diploid cells were inoculated in a 96 v-shaped well plate using a robotically manipulated 96 pin tool in a synthetic complete medium with MSG at pH 6.0 with NAT and HPH. After 48 h of growth, optical density (OD) was read using a TECAN Infinite F200 Pro, and dilutions to 1 OD in sterile nanopure water were prepared. Cells were then diluted to 0.1 OD by combining 25 µl of cell suspension at OD = 1 and 225 µl of PCA selection media without agar in a 96-wells plate. Plates were incubated at 30 °C in a TECAN Infinite M Nano and OD was monitored each 15 min for 72 h.

B1: YPR055W_1 (protein, UniProt P32855 1-1065, looked up)
Exocyst complex component SEC8: MDYLKPAQKGRRRGLSINSLSETQQSAMNSSLDHLQNDLNRINLQWNRILSDNTNPLELALAFLDDTSVGLGHRYEEFNQLKSQIGSHLQDVVNEHSQVFNTNVASYGKAVSSIMQAQEQTLNLKNCLKEANEKITTDKGSLQELNDNNLKYTKMIDVLVNIEELLQIPEKIEENIRKENFHQVQILLERGFILMNNKSLKTVEILKPINQQLELQEHLLFNNLIEEIHDIMYSKSNKTNFTRVTNNDIFKIISISHNGFTSLENYLYNIVNIDIMEHSKTINKNLEQFIHDQSLNKGNIMLQENAATQAPLAPSRNQENEGFNRIGFLLKTINNINKLPVAFNIITERAKEEIHNIIVKSTESIRSKHPSLLKMATSLKNDNHFGLPVQDILSIILRECFWEIFLKLLYAIQCHRAIFEMSNILQPTSSAKPAFKFNKIWGKLLDEIELLLVRYINDPELISSNNGSIKPINGATNNAPTLPKRKNPKIFSLEYNIEDNSSVKDQAFELKALLKDIFPGFSVSSNMDLDSIYVKDESFEQDEPLVPPSVFNMKVILDPFLLFTQSTSTIVPSVLTQNTISSLTFFDDYMNKSFLPKIQMTMDYLFTVEVESNNPYALELSDENHNIFKTALDFQRLFYNLLNVFNTANTFREKISYCILDLLNHFYNYYLGLFNSLIGTSDRHLTRKIITAWLQNGILMDQEQKILNGDETLFHEESIELFKEIPHFYQAGKGLSKSDLFNNLTLDTILQFSASVLWILNWLPGLKKAINIDEVSQEPMLDADRLRSSWTFSESMDLNYSNPSSSPNSLGNLKILLDDKASKKFDETIDGFKTLKFKLITILRFNIRALCIYDIGSFFQNTKIWNMDVGSIELDQNIASLISELRRTESKLKQQLPEKEKNSIFIGLDIVNNYALIKGAKSIKVLNHNGIKKMLRNVNVLQHAYRNLSSEPSKINMNVTMNFYSLCGSSEAELFEYIKDNELPHCSVEDLKTILRLQFSEEMHRQLKRQSTSSTKGSIKPSNKRYTEALEKLSNLEKEQSKEGARTKIGKLKSKLNAVHTANEK
Ratio (Deletedscore / WTscore) (bait ABP1): 0.936 | Ratio (Deletedscore / WTscore) (bait BEM1-1): 1.037 | Ratio (Deletedscore / WTscore) (bait BEM1-2): 0.6358 | Ratio (Deletedscore / WTscore) (bait LSB3): 0.783

B2: YNL094W_1 (protein, UniProt P53933 1-587, looked up)
Phosphatidate phosphatase APP1: MNSQGYDESSSSTAATSGPTSGDPRMGKKQRFMNLIRTTKDVYIPNLTSSISQKTMDGIRSTTNSFEGYNDLPMELPHNTTITYFPTYTTTNLVDPDGLSAPRKDFETTVRCAVSYPGNPTSRRNRWLLSLCKQYLRTGTAEADVAPVVPPHLEEDSGDLNDSQSSIESSLSSKSENRYSHMGIQEEDVLNERIQGFLSKKVPNTPVVVDLLPKDKLRGDTASFFGTTDSYGNLLIKAETDFLPSKINITLDTPIEGHADPISETFPANYVSPYGIGLISDIDDTIKHTGVTGDRRSMFRNVFIHDVQSWVIDGVPLWYKTLHDVADVDFFYVSNSPIQTFTLLKQYICANFPPGPIFLKQYSGNFFSTIMTSSANRKIQPIANILKDFPKKKFILVGDSGEHDLEAYTTTALQFPNQILAIYIRCCSNSMSDVPSHDEEVMNEVNNIIELQQRPMQMTKSTVRTRRRPPPPPIPSTQKPSLTEEQTESIRMSRRNKDENNAKRVAPPPLPNRQLPNLDANTYYVPSSQNDYGMYGAFMDKKADEWKRRVMDSIQKLSNQDTTLMFFSDPALSLEDSIRRIREKYSN
Ratio (Deletedscore / WTscore) (bait ABP1): 0.4956

B3: YGR229C_2 (protein, UniProt P32566 1-505, looked up)
Cell wall assembly regulator …: MDLFKRKVKEWVYSLSTDDHYAEYNPDETPTFNMGKRLNSNNGQVNPSQMHLNSVDEEMSMGFQNGVPSNEDINIDEFTSTESNDGVSETLLAWRHIDFWTSEHNPDLNATLSDPCTQNDITHAEEDLEVSFPNPVKASFKIHDGQEDLESMTGTSGLFYGFQLMTLDQVVAMTQAWRNVAKNLNKRSQQGLSHVTSTGSSSSMERLNGNKFKLPNIPDQKSIPPNAVQPVYAHPAWIPLITDNAGNHIGVDLAPGPNGKYAQIITFGRDFDTKFVIAENWGEFLLSFANDLEAGNWYLVDDNDDYFSGDGELVFRDKKSNGPIQDYFEVLKRRTWIKYQENLRSQQQKSQPDTSLQEQKYVPASQKKVAAEQPSTLNAESIKGEDSGSADVQSVQDHESVKIVKTEPSEAETTTVNTESLGQAEHEIKADNVDIKQESERKEDEKQPKVEEKEHVENEHVTESAKKDDDVNKQTEEMNKKEENEIRSDDAKVEEAREEFENIAL
Ratio (Deletedscore / WTscore) (bait BZZ1-1): 1.034 | Ratio (Deletedscore / WTscore) (bait BZZ1-2): 1.734 | Ratio (Deletedscore / WTscore) (bait LSB1): 1.08 | Ratio (Deletedscore / WTscore) (bait PIN3): 1.619

B4: YGL099W_1 (protein, UniProt P53145 1-640, looked up)
Large subunit GTPase 1: MPPKEAPKKWKAPKGPKPTHRKNKNKLELGRAIKYARQKENAIEYLPDGEMRFTTDKHEANWVKLRSVTQESALDEFLSTAALADKDFTADRHSNVKIIRMDSGNDSATSQGFSMTNEQRGNLNAKQRALAKDLIVPRRPEWNEGMSKFQLDRQEKEAFLEWRRKLAHLQESNEDLLLTPFERNIEVWKQLWRVVERSDLVVQIVDARNPLLFRSVDLERYVKESDDRKANLLLVNKADLLTKKQRIAWAKYFISKNISFTFYSALRANQLLEKQKEMGEDYREQDFEEADKEGFDADEKVMEKVKILSIDQLEELFLSKAPNEPLLPPLPGQPPLINIGLVGYPNVGKSSTINSLVGAKKVSVSSTPGKTKHFQTIKLSDSVMLCDCPGLVFPNFAYNKGELVCNGVLPIDQLRDYIGPAGLVAERIPKYYIEAIYGIHIQTKSRDEGGNGDIPTAQELLVAYARARGYMTQGYGSADEPRASRYILKDYVNGKLLYVNPPPHLEDDTPYTREECEEFNKDLYVFDRLPDTRKEQVQNAAKAKGIDIVDLARDLNQLTFSAHTGGDTQKEAKSVTHGGKQAALYNAAEDLDRDFFKMNNVEGRLSTPFHKVQNSSAGKRHNKKNKSKNAKSKVFSIENN
Ratio (Deletedscore / WTscore) (bait ABP1): 1.003

B5: YLR191W_2 (protein, UniProt P80667 1-386, looked up)
Peroxisomal membrane protein …: MSSTAVPRPKPWETSASLEEPQRNAQSLSAMMTSNQQDSRPTEESNNSNSASESAPEVLPRPAALNSSGTYGESNTIPGIYGNSNYGIPYDNNPYSMNSIYGNSIGRYGYGGSYYGNNYGSFYGGGYGAGAGYGMNNGSGLGESTKATFQLIESLIGAVTGFAQMLESTYMATHNSFFTMISVAEQFGNLKEMLGSFFGIFAIMKFLKKILYRATKGRLGIPPKNFAESEGSKNKLIEDFQKFNDSGTINSNEKATRRKISWKPLLFFLMAVFGFPYLLNKFITKLQTSGTIRASQGNGSEPIDPSKLEFARALYDFVPENPEMEVALKKGDLMAILSKKDPLGRDSDWWKVRTKNGNIGYIPYNYIEIIKRRKKIEHVDDETRTH
Ratio (Deletedscore / WTscore) (bait BEM1-1): 1.873 | Ratio (Deletedscore / WTscore) (bait): 1.174

B6: YOR284W_1 (protein, UniProt Q12134 1-243, looked up)
Protein HUA2: MQQTKFGKMYLDHDSVVEYSEDEIVEADRITLGYKKRLSMIENQMRHLLEDFSLDVQQIEPILADLQKYYDAFLQLLQKRNKSLQCKRSTHQPVPSPMNSQTSTNAKVNLSGKLMKFQLNSVQKFDEENILRILQNKIEFEHYFQIDKGKKQKVLLLAVYQCLNGPTRLHKVLNIEGIIHNNSIRTILGKQVSSSKWTVFLYDVKLVLLAHRQDVPNLETSKMIVRYGDLFPCALYFKDHTAY
Ratio (Deletedscore / WTscore) (bait ABP1): 0.3885

B7: YCL024W_2 (protein, UniProt P25389 1-1037, looked up)
Probable …: MTVANTETHSAAKPSSTIGPWKLGETLGFGSTGKVQLAQHERTGHRTAVKVISKSIFNNNGNHSNDDSVLPYNIEREIVIMKLLSHPNVLSLYDVWETNNNLYLILEYAEKGELFNLLVDHGPLPEREAINCFRQIIIGISYCHALGIVHRDLKPENLLLDSFYNIKIADFGMAALQTDADLLETSCGSPHYAAPEIVSGLPYEGFASDVWSCGVILFALLTGRLPFDEENGNVRDLLLKVQKGQFEMPNDTEISRDAQDLIGKILVVDPRQRIKIRDILSHPLLKKYQTIKDSKSIKDLPRENTYLYPLADSNNHTSASIDDSILQNLVVLWHGRHADDIVSKLKENGTNKEKILYALLYRFKLDSVRGSNKKNRNKIKKTKKNKRSSTLSSSSSLLLNNRSIQSTPRRRTSKRHSREFSSSRKRSSFLLSSNPTDSSPIPLRSSKRITHINVASANTQATPSGVPNPHKRNSKKRSSKRLSYMPNTKRSSLTSKSLSNFTNLIDDDDWEYIEKDAKRTSSNFATLIDEIFEPEKFELAKREKAELQRKVQEAKRQSVNAQKINEDEFGSEVSDGMKELKKINDKVSSPLINYEFSQQELLQDIDTLLTNRYQLSSYTRPISRLDPGLTPVTETLPNNLKEKTALLQDTEKKIIETIRRSKFLGSLLNVRGGLSPGKSELAPIEESPIVSTTPLIYNDRMEPRRISDVEVPHFTRKSKHFTTANNRRSVLSLYAKDSIKDLNEFLIKEDPDLPPQGSTDNESRSEDPEIAESITDSRNIQYDEDDSKDGDNVNNDNILSDFPQGVGISQEYDMKDKNPNQSPISKSAEPTLVVKLPSLSSFQGKNASGLGLYQREPSKVTLPSLTSNNSSVGENIEDGAEKGTESEKIAASLSDDDLKEDNDKKDNDTVNAPTTVKKPPNSVLLKKFSKGKILELEIHAKIPEKRLYEGLHKLLEGWKQYGLKNLVFNITNMIITGKLVNDSILFLRSTLFEIMVLPNGDGRSLIKFNKKTGSTKTLTKLATEIQIILQKEGVLDK
Ratio (Deletedscore / WTscore) (bait NBP2): 1.51

B8: YKL117W_2 (protein, UniProt P28707 2-216, looked up)
Co-chaperone protein SBA1: SDKVINPQVAWAQRSSTTDPERNYVLITVSIADCDAPELTIKPSYIELKAQSKPHVGDENVHHYQLHIDLYKEIIPEKTMHKVANGQHYFLKLYKKDLESEYWPRLTKEKVKYPYIKTDFDKWVDEDEQDEVEAEGNDAAQGMDFSQMMGGAGGAGGAGGMDFSQMMGGAGGAGSPDMAQLQQLLAQSGGNLDMGDFKENDEEDEEEEIEPEVKA
Ratio (Deletedscore / WTscore) (bait ABP1): 1.066 | Ratio (Deletedscore / WTscore) (bait BZZ1-2): 1.596 | Ratio (Deletedscore / WTscore) (bait LSB3): 1.715 | Ratio (Deletedscore / WTscore) (bait RVS167): 1.422

— article PMC7954794, “Protein context shapes the specificity of SH3 domain-mediated interactions in vivo” (Nature Communications, 2021)
